Laboratory results published in the supplement of paper PMC10567573.

B1: TEKT4 (parent)
chain: SEVEELNMSLTALREKLLEAEQSL

Variants of: B1
Assay: protein stability index of a GFP-peptide fusion (GPS, HEK-293T) (PSI 1-6); higher = more stable
Conditions: c terminus: a fixed tail appended
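Further: lentivirally expressed fusions sorted by FACS into six bins by GFP to DsRed ratio, PSI derived from sequencing read proportions per bin multiplied by bin number.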

Protein stability index: each site, then its substitutions
L17: N 4.89; H 5.01; F 3.69; E 5.46; S 4.9; W 3.41; K 5.36; Q 4.98; A 5.53; I 4.28; P 5.42; C 4.21; D 5.26; M 2.51; V 4.45; R 3.69; G 5.38; T 5.16; Y 4.05
L13: N 4.87; T 5.4; M 3.32; D 5.55; H 5.21; K 4.76; R 4.83; V 4.55; Y 4.34; F 4.49; C 4.68; A 4.86; I 4.14; G 5.15; E 5.42; P 4.47; S 4.8; Q 4.47; W 3.18
E15: N 2.54; L 2.1; G 3.04; H 2.94; Y 2.15; I 2.62; Q 2.52; V 2.3; F 2.27; M 2.18; D 2.97; W 1.59; A 2.2; K 3.38; P 3.76; T 2.44; C 2.24; R 3.11; S 2.27
S9: M 2.4; F 2.28; H 3.28; I 2.14; L 2.3; R 3.13; T 2.67; P 2.85; C 2.6; E 2.95; V 1.66; A 3; N 3.06; W 2.85; Y 2.33; D 3.57; G 2.61; K 2.82
M8: W 2.28; P 3.99; N 2.41; R 2.12; T 3.25; K 2.77; Y 2.37; I 3.17; A 2.9; E 3.29; V 3.77; L 3.36; C 2.27; H 2.96; F 3.02; Q 2.56; D 3.5; S 2.81; G 4.32
E19: A 2.69; C 3.04
L6: I 2.76; A 3.81; Y 2.6; C 3.71; K 3.75; T 3.02; W 2.95; F 3; S 3.71; H 3.31; R 2.87; G 3.95; V 3.58; D 4.41; M 3.47; P 3.99; E 4.33; Q 3.51; N 3.89
E5: T 2.54; G 2.73; M 2.22; I 1.95; C 2.31; A 2.37; W 1.79; L 2.43; K 2.6; N 2.63; P 2.63; Y 2.03; D 2.63; V 2.64; H 2.72; F 2.76; S 3.06; R 2.35; Q 2.72
S1: Q 3.52; M 2.27; N 2.2; Y 2.31; R 2.19; K 2.23; T 2.6; L 2.96; W 2.26; I 2.37; P 2.94; V 2.76
L18: T 4.54; E 5.08; I 2.39; Q 4.23; G 4.45; V 3.94; R 3.67; S 4.65; N 4.11; W 2.86; F 3.32; K 4.74; P 5.43; M 2.71; D 5.37; Y 3.92; C 4.07; H 3.84
R14: F 2.42; I 2.83; N 4.79; Y 2.46; V 2.07; H 3.87; C 3.37; W 2.58; D 5.52; K 3.94; L 2.05; A 3.48; S 4.41; T 3.62; E 4.63; P 5.3; M 2.02; G 4.19; Q 3.99
E4: W 1.68; T 2.59; S 2.71; P 2.73; D 2.63; L 2.26; R 2.02; C 2.29; V 2.58; M 2.07; I 2.59; H 2.06; K 2.24; F 2.34; Y 1.99; N 3.12; G 2.89; Q 2.32; A 1.86
L10: V 2.25; K 3.73; N 4.09; H 3.26; R 3.97; M 2.64; F 3.23; I 1.9; A 3.75; S 3.64; G 3.74; D 4.03; T 3.29; Y 2.93; W 2.68; C 3.15; E 3.55; Q 4.14
N7: I 3.09; W 2.1; K 2.84; E 2.56; C 2.48; V 1.95; F 1.89; L 2.31; M 2.31; P 3.42; H 2.43; G 2.94; Q 2.67; A 2.35; D 3.24; T 2.63; Y 3.42; R 3.92; S 2.97
E2: H 2.3; W 1.98; T 2.41; K 2.19; N 2.55; F 1.76; V 2.45; D 3.06; A 2.84; M 2.74; G 2.31; Q 2.69; S 2.34; C 2.66; P 3.14; I 2.42; R 3.06; Y 1.68; L 2.72
V3: I 3.16; Y 2.95; K 2.45; M 2.63; C 3.39; F 2.83; D 3.64; L 3.51; Q 3.4; S 3.29; R 2.83; H 3.29; G 3.67; W 2.4; N 2.57; P 3.47; A 3.61; T 2.99; E 3.98
T11: R 3.1; V 2.36; H 2.5; N 3.02; S 2.92; P 3.31; Y 1.81; L 2.8; Q 3.65; G 3.02; E 4.1; D 4.13; M 2.51; W 2.09; K 3.15; C 2.82; I 2.35; F 1.76; A 3.49
K16: A 3.42; V 3.11; Q 2.83; Y 2.67; S 3.74; D 4.25; P 5.38; E 3.19; F 1.99; I 2.92; C 3.24; H 2.83; G 3.58; R 3.06; T 2.83; N 1.72; W 3.27; L 2.85; M 2.26
A12: M 1.9; P 4.15; E 2.38; L 2.27; W 2.56; K 3.17; T 2.3; G 2.56; R 2.54; V 3.06; C 2.15; Y 2.47; Q 2.29; H 2.76; S 2.46; F 2.37; D 3.48; N 1.73; I 2.36
